Assay results from article PMC9973270, “RdmA Is a Key Regulator in Autoinduction of DSF Quorum Quenching in Pseudomonas nitroreducens HS-18” (mBio, 2022).

How the values were obtained:
RdmA = biological target: T1, RdmA (Pseudomonas nitroreducens, UniProt A0ABS0KS77); assay: EMSA, inhibition of RdmA binding to biotin-labelled dmgA promoter; details: RdmA 2 uM preincubated with DSF 30 min at 30 C before promoter fragment F1 (30 min, 22 C); solvent methanol
T1 construct: gene I5I61_25840; full length, 206 residues; N-terminal His6 tag, vector pET32a, expressed in E. coli BL21(DE3); dimer proposed
T1 sequence (A0ABS0KS77 1-206): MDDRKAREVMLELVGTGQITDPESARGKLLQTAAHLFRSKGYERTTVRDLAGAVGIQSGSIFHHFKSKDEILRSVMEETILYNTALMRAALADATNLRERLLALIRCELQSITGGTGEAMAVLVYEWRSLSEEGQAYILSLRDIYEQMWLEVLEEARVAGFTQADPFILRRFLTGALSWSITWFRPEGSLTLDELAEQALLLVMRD

[1] = system: T2, RdmA (Pseudomonas nitroreducens HS-18), ORF:ff03b8a4; assay: EMSA; details: LightShift chemiluminescent EMSA kit (buffer per manufacturer; pH and salt not stated), 10 uL, 2 nM biotin-DNA (20 fmol; Fig 5 legend says 10 nM), 0-4 uM RdmA …
T2 sequence: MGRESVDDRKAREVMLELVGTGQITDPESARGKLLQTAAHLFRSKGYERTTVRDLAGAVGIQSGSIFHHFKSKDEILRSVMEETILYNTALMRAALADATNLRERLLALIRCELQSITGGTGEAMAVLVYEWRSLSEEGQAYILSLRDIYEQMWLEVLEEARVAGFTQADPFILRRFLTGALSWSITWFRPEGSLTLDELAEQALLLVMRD

Row | concentration giving complete inhibition of DNA binding (RdmA) [mM] | Compound | binding [1]
1 | 0.9 | CC(C)CCCCCCC/C=C\C(=O)O [DSF, cis-11-methyl-2-dodecenoic acid] | 
2 |  | GCTTTCTCTCCCCATGGGTCCCATCTGGCCACCTTGCTCAGGGCAATTCATCGAATCGCCCCGCAAGTGCTTGTGTTGTCTGACGAAATGTAAGCCCGCGAGTGCCAACCA (double strand) [PdmgA F4] | no binding
3 |  | GCTTTCTCTCCCCATGGGTCCCATCTGGCCACCTTGCTCAGGGCAATTCATCGAATCGCCCCGCAAGTGCTTGTGTTGTCTGACGAAATGTAAGCCCGCGAGTGCCAACCAAGCAAGCGCTTGG (double strand) [PdmgA F3] | binds more weakly
4 |  | GCTTTCTCTCCCCATGGGTCCCATCTGGCCACCTTGCTCAGGGCAATTCATCGAATCGCCCCGCAAGTGCTTGTGTTGTCTGACGAAATGTAAGCCCGCGAGTGCCAACCAAGCAAGCGCTTGGCCATCCAATGGTTGGGGTAGTCATCGACTCGGGGCTTTTCAACCAAGCGCTTGCT (double strand) [PdmgA F2] | binds more weakly
